Measurements: patent publication US20240376198A1 (INHIBRX, published 2024)
Substitutions are numbered along the chain they refer to. Numbers in names are those of the source.

T1: mouse NKp46 (mouse, UniProt Q8C567 17-325)
T1 construct: whole, on cells
T1 sequence (looked up): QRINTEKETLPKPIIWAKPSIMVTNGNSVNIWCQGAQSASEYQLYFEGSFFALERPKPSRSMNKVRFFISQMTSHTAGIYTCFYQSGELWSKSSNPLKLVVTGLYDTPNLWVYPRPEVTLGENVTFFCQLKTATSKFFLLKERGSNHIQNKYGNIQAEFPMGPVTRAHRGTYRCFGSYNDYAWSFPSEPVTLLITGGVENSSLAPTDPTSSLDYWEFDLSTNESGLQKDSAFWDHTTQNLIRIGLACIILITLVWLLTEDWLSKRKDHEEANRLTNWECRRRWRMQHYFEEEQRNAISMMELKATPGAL

B1: hz5D7v12-Fc xELL-Hole; and hz5D7v12-Fc xELL-Knob-IL2-T3A-H16A-E61R-P65R-D84Y-C125S (cx10454) (Fc fusion)
chain 1: EVQLVESGGGEVQPGGSLRLSCAASGRTFASAAMGWFRQAPGKEREFVAAISRSDDTYYAESVKGRFTISRDNAKNTVYLQMSSLRAEDTAVYYCAAVVPTYGSNIYVHSAAYNYWGQGTLVTVKPGGGGDKTHTCPPCPAPGGPSVFLFPPKPKDTLMISRTPEVTCVVVDVSHEDPEVKFNWYVDGVEVHNAKTKPREEQYNSTYRVVSVLTVLHQDWLNGKEYKCKVSNKALPAPIEKTISKAKGQPREPQVYTLPPCRDELTKNQVSLWCLVKGFYPSDIAVEWESNGQPENNYKTTPPVLDSDGSFFLYSKLTVDKSRWQQGNVFSCSVMHEALHNHYTQKSLSLSPGGSGGSAPASSSTKKTQLQLEALLLDLQMILNGINNYKNPKLTRMLTFKFYMPKKATELKHLQCLERELKRLEEVLNLAQSKNFHLRPRYLISNINVIVLELKGSETTFMCEYADETATIVEFLNRWITFSQSIISTLT
chain 2: EVQLVESGGGEVQPGGSLRLSCAASGRTFASAAMGWFRQAPGKEREFVAAISRSDDTYYAESVKGRFTISRDNAKNTVYLQMSSLRAEDTAVYYCAAVVPTYGSNIYVHSAAYNYWGQGTLVTVKPGGGGDKTHTCPPCPAPGGPSVFLFPPKPKDTLMISRTPEVTCVVVDVSHEDPEVKFNWYVDGVEVHNAKTKPREEQYNSTYRVVSVLTVLHQDWLNGKEYKCKVSNKALPAPIEKTISKAKGQPREPQVCTLPPSRDELTKNQVSLSCAVKGFYPSDIAVEWESNGQPENNYKTTPPVLDSDGSFFLVSKLTVDKSRWQQGNVFSCSVMHEALHNRYTQKSLSLSPG
B2: hz5D7v17-Fc xELL-Hole; and hz5D7v17-Fc xELL-Knob-IL2-T3A-H16A-E61R-P65R-D84Y-C125S (cx11314) (Fc fusion)
chain 1: B1 chain 1 with K125R
chain 2: EVQLVESGGGEVQPGGSLRLSCAASGRTFASAAMGWFRQAPGKEREFVAAISRSDDTYYAESVKGRFTISRDNAKNTVYLQMSSLRAEDTAVYYCAAVVPTYGSNIYVHSAAYNYWGQGTLVTVRPGGGGDKTHTCPPCPAPGGPSVFLFPPKPKDTLMISRTPEVTCVVVDVSHEDPEVKFNWYVDGVEVHNAKTKPREEQYNSTYRVVSVLTVLHQDWLNGKEYKCKVSNKALPAPIEKTISKAKGQPREPQVCTLPPSRDELTKNQVSLSCAVKGFYPSDIAVEWESNGQPENNYKTTPPVLDSDGSFFLVSKLTVDKSRWQQGNVFSCSVMHEALHNRYTQKSLSLSPGK
B3: NKp46-hz5D7v8-Fc* (Fc fusion)
chain: EVQLVESGGGEVQPGGSLRLSCAASGRTFASAAMGWFRQAPGKEREFVAAISRSVGDTYYADSVKGRFTISRDNAKNTVYLQMSSLRAEDTAVYYCAAVVPTYGNNIYVHSAAYNYWGQGTLVTVKPGGGGPSVFLFPPKPKDTLMISRTPEVTCVVVDVSHEDPEVKFNWYVDGVEVHNAKTKPREEQYNSTYRVVSVLTVLHQDWLNGKEYKCKVSNKALPAPIEKTISKAKGQPREPQVYTLPPSRDELTKNQVSLTCLVKGFYPSDIAVEWESNGQPENNYKTTPPVLDSDGSFFLYSKLTVDKSRWQQGNVFSCSVMHEALHNHYTQKSLSLSPG
notes: VHH-Fc fusion with an IgG1 Fc lacking a hinge (Fc*); also called NKp46-bz5D7v8-Fc*
B4: NKp46-hz5D7v9-Fc* (Fc fusion)
chain: B3 chain with G56D
notes: VHH-Fc fusion with an IgG1 Fc lacking a hinge (Fc*)
B5: NKp46-hz5D7v10-Fc* (Fc fusion)
chain: EVQLVESGGSLRLSCAASGRTFASAAMGWFRQAPGKEREFVAAISRSDDTYYADSVKGRFTISRDNAKNTVYLQMSSLRAEDTAVYYCAAVVPTYGNNIYVHSAAYNYWGQGTLVTVKPGGGGPSVFLFPPKPKDTLMISRTPEVTCVVVDVSHEDPEVKFNWYVDGVEVHNAKTKPREEQYNSTYRVVSVLTVLHQDWLNGKEYKCKVSNKALPAPIEKTISKAKGQPREPQVYTLPPSRDELTKNQVSLTCLVKGFYPSDIAVEWESNGQPENNYKTTPPVLDSDGSFFLYSKLTVDKSRWQQGNVFSCSVMHEALHNHYTQKSLSLSPG
notes: as for B4
B6: NKp46-5D7-Fc* (Fc fusion)
chain: QVTLRESGASLSLTCAASGRTFASAAMGWFRQAPGEEREFVAAISRSDDTYYADSVKGRFTISRDNAKNTVYLQMNSLKSEDTAVYYCAAVVPTYGNNIYVHSAAYNYWGQGTQVTVKPGGGGGPSVFLFPPKPKDTLMISRTPEVTCVVVDVSHEDPEVKFNWYVDGVEVHNAKTKPREEQYNSTYRVVSVLTVLHQDWLNGKEYKCKVSNKALPAPIEKTISKAKGQPREPQVYTLPPSRDELTKNQVSLTCLVKGFYPSDIAVEWESNGQPENNYKTTPPVLDSDGSFFLYSKLTVDKSRWQQGNVFSCSVMHEALHNHYTQKSLSLSPG
notes: VHH-Fc fusion with an IgG1 Fc lacking a hinge (Fc*); also called 5D7 VHH
B7: NKp46-hz5D7v1-Fc* (Fc fusion)
chain: EVQLVESGGGEVQPGGSLRLSCAASGRTFASAAMGWFRQAPGKGREFVAAISRSDDTYYAESVKGRFTISRDNAKNTLYLQMSSLRAEDTAVYYCAAVVPTYGNNIYVHSAAYNYWGQGTLVTVKPGGGGPSVFLFPPKPKDTLMISRTPEVTCVVVDVSHEDPEVKFNWYVDGVEVHNAKTKPREEQYNSTYRVVSVLTVLHQDWLNGKEYKCKVSNKALPAPIEKTISKAKGQPREPQVYTLPPSRDELTKNQVSLTCLVKGFYPSDIAVEWESNGQPENNYKTTPPVLDSDGSFFLYSKLTVDKSRWQQGNVFSCSVMHEALHNHYTQKSLSLSPG
notes: as for B4
B8: NKp46-hz5D7v7-Fc* (Fc fusion)
chain: B7 chain with G44E, D55G, E61D, L78V
notes: VHH-Fc fusion with an IgG1 Fc lacking a hinge (Fc*); also called NKp46-bz5D7v7-Fc*
B9: NKp46-hz5D7v2-Fc* (Fc fusion)
chain: B7 chain with G44E
notes: VHH-Fc fusion with an IgG1 Fc lacking a hinge (Fc*); also called NKp46-bz5D7v2-Fc*
B10: NKp46-hz5D7v4-Fc* (Fc fusion)
chain: B7 chain with G44E, E61D, L78V
notes: as for B4
B11: NKp46-hz5D7v15-Fc* (Fc fusion)
chain: B7 chain with G44E, L78V, N105A
notes: as for B4
B12: NKp46-hz5D7v12-Fc* (Fc fusion)
chain: B7 chain with G44E, L78V, N104S
notes: as for B4
B13: NKp46-hz5D7v13-Fc* (Fc fusion)
chain: B7 chain with G44E, L78V, N105T
notes: as for B4

The binders below were run against IL-2 receptor (human) (assay: cell-based or functional assay).

pSTAT5 EC50 on CD56brightCD16- NK cells | pSTAT5 EC50 on CD56dimCD16+ NK cells and total NK cells | Binder
< 0.08 nM | < 0.4 nM | B1
< 0.08 nM | < 0.4 nM | B2

These binders were tested against T2, cynomolgus NKp46 (cynomolgus monkey, UniProt Q95JB9 22-306) (assay: flow cytometry, HEK293F cells transfected with cyno NKp46).
T2 construct: also called cyno NKp46; cynomolgus monkey NKp46
T2 sequence (Q95JB9 22-306 limits assumed): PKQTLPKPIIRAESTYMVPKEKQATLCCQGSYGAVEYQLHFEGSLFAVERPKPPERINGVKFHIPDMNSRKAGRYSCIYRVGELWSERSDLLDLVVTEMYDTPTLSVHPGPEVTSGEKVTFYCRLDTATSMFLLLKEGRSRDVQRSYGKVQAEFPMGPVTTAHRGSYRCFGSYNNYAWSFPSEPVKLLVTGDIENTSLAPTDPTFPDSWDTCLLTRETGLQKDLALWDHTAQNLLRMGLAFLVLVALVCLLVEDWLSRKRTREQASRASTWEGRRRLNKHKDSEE
Description: (§1) Binding of NKp46-binding polypeptides formatted as VHH-Fc fusion proteins was assessed by flow cytometry. An IgG1-Fc lacking a hinge, or a homodimeric Fc (FIG. 1I-1J) was used (the Fc lacking a hinge is annotated as Fc*). HEK293F cells were transiently transfected with a plasmid encoding full-length human NKp46, cynomolgus NKp46, or mouse NKp46, followed by an IRES and GFP. Transfected cells expressing NKp46 and GFP were used to measure binding of the polypeptides. The transfected cells were plated in a 96-well plate at 30,000 cells per well in FACS buffer (PBS, 1% BSA, 0.1% NaN₃, pH 7.4). Untransfected HEK293F cells were used as a NKp46-negative control and plated at 30,000 cells per well in a separate plate. Test polypeptides were then diluted to two times the final concentration of 1000 nM, and a 3-, 4-, or 5-fold, serial dilution was made. A final column was left with only FACS buffer as a secondary-only control. Test article dilutions were added to an equal volume of cells, and assay plates were incubated for 30 minutes at 4° C. After washing twice with 150 μL. of FACS buffer per well, the cells were resuspended in FACS buffer with α-hFc-647 secondary diluted 1:1000-2000. Assay plates were then left to incubate at 4° C. for 20-30 minutes. After one additional wash with 150 μL of FACS buffer, bound antibody was detected by flow cytometry. Flow cytometric detection was performed on an Intellicyt iQue Plus or Accuri iQue. NKp46 transfected cells were gated on as GFP positive, and polypeptide binding was measured as median fluorescence at 647 nm.

Bmax (MFI) | Kd | Binder
53500 MFI | 0.526 nM | B3
61900 MFI | 0.655 nM | B4
 | 1.06 nM | B5
58600 MFI | 0.538 nM | B6
67600 MFI | 0.691 nM | B7
64600 MFI | 0.703 nM | B8
51500 MFI | 0.902 nM | B9
 | 0.446 nM | B10

Biological target: T2, cynomolgus NKp46
Assay: as above
Remark: another data set of the same source
Description: as §1

Bmax (MFI) | Kd | Binder
16400 MFI | 0.428 nM | B11
17900 MFI | 0.455 nM | B12
18800 MFI | 0.748 nM | B13

Each binder was assayed against T3, human NKp46 (human, UniProt O76036 22-304) (assay: flow cytometry, HEK293F cells transfected with human NKp46).
T3 construct: also called CD335; NCR1
T3 sequence (O76036 22-304 Q82K): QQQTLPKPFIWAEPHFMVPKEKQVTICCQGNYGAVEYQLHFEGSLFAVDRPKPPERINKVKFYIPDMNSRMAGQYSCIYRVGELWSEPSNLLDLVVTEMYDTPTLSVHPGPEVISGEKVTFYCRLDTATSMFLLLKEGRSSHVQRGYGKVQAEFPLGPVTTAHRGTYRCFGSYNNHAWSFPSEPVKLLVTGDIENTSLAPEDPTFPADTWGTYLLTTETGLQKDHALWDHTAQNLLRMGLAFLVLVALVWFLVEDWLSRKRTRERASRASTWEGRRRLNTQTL
Description: as §1

Bmax (MFI) | Kd | Binder
930000 MFI | 0.203 nM | B3
1.05e+06 MFI | 0.392 nM | B4
 | 0.269 nM | B5
1.04e+06 MFI | 0.172 nM | B6
790000 MFI | 0.139 nM | B7
866000 MFI | 0.23 nM | B8
938000 MFI | 0.762 nM | B9
 | 0.189 nM | B10

Biological target: T3, human NKp46
Assay: as above
Remark: another data set of the same source
Description: as §1

Bmax (MFI) | Kd | Binder
143000 MFI | 0.237 nM | B11
149000 MFI | 0.14 nM | B12
150000 MFI | 0.234 nM | B13

The binders below were run against T1, mouse NKp46 (assay: flow cytometry, HEK293F cells transfected with mouse NKp46).
Description: as §1

Bmax (MFI) | Kd | Binder
1.12e+06 MFI | 0.696 nM | B3
1.22e+06 MFI | 0.941 nM | B4
 | 0.82 nM | B5
1.07e+06 MFI | 0.487 nM | B6
1.17e+06 MFI | 0.468 nM | B7
1.17e+06 MFI | 0.613 nM | B8
1.21e+06 MFI | 0.729 nM | B9
 | 0.887 nM | B10

Biological target: T1, mouse NKp46
Assay: as above
Remark: another data set of the same source
Description: as §1

Bmax (MFI) | Kd | Binder
34300 MFI | 0.729 nM | B11
49300 MFI | 0.513 nM | B12
38100 MFI | 0.604 nM | B13
